Experimental data taken from publication PMC5625841 (Cell, 2017).
One block for each molecule: values may come before it.

Tests used:
[1] = molecular target: taxol-stabilized microtubules; assay: single-molecule TIRF binding density on microtubules
[2] = molecular target: Dyn^WB-M, monomeric S. cerevisiae dynein construct with a Walker B mutation in AAA3 (S. cerevisiae); assay: cryo-EM structure
[3] = molecular target: Dyn^wt-M, monomeric S. cerevisiae cytoplasmic dynein construct lacking GST, wild type AAA3 (S. cerevisiae) (UniProt P36022); assay: cryo-EM structure
Chain of Dyn^wt-M, monomeric S. cerevisiae cytoplasmic dynein construct lacking GST, wild type AAA3 (S. cerevisiae) (P36022 whole entry): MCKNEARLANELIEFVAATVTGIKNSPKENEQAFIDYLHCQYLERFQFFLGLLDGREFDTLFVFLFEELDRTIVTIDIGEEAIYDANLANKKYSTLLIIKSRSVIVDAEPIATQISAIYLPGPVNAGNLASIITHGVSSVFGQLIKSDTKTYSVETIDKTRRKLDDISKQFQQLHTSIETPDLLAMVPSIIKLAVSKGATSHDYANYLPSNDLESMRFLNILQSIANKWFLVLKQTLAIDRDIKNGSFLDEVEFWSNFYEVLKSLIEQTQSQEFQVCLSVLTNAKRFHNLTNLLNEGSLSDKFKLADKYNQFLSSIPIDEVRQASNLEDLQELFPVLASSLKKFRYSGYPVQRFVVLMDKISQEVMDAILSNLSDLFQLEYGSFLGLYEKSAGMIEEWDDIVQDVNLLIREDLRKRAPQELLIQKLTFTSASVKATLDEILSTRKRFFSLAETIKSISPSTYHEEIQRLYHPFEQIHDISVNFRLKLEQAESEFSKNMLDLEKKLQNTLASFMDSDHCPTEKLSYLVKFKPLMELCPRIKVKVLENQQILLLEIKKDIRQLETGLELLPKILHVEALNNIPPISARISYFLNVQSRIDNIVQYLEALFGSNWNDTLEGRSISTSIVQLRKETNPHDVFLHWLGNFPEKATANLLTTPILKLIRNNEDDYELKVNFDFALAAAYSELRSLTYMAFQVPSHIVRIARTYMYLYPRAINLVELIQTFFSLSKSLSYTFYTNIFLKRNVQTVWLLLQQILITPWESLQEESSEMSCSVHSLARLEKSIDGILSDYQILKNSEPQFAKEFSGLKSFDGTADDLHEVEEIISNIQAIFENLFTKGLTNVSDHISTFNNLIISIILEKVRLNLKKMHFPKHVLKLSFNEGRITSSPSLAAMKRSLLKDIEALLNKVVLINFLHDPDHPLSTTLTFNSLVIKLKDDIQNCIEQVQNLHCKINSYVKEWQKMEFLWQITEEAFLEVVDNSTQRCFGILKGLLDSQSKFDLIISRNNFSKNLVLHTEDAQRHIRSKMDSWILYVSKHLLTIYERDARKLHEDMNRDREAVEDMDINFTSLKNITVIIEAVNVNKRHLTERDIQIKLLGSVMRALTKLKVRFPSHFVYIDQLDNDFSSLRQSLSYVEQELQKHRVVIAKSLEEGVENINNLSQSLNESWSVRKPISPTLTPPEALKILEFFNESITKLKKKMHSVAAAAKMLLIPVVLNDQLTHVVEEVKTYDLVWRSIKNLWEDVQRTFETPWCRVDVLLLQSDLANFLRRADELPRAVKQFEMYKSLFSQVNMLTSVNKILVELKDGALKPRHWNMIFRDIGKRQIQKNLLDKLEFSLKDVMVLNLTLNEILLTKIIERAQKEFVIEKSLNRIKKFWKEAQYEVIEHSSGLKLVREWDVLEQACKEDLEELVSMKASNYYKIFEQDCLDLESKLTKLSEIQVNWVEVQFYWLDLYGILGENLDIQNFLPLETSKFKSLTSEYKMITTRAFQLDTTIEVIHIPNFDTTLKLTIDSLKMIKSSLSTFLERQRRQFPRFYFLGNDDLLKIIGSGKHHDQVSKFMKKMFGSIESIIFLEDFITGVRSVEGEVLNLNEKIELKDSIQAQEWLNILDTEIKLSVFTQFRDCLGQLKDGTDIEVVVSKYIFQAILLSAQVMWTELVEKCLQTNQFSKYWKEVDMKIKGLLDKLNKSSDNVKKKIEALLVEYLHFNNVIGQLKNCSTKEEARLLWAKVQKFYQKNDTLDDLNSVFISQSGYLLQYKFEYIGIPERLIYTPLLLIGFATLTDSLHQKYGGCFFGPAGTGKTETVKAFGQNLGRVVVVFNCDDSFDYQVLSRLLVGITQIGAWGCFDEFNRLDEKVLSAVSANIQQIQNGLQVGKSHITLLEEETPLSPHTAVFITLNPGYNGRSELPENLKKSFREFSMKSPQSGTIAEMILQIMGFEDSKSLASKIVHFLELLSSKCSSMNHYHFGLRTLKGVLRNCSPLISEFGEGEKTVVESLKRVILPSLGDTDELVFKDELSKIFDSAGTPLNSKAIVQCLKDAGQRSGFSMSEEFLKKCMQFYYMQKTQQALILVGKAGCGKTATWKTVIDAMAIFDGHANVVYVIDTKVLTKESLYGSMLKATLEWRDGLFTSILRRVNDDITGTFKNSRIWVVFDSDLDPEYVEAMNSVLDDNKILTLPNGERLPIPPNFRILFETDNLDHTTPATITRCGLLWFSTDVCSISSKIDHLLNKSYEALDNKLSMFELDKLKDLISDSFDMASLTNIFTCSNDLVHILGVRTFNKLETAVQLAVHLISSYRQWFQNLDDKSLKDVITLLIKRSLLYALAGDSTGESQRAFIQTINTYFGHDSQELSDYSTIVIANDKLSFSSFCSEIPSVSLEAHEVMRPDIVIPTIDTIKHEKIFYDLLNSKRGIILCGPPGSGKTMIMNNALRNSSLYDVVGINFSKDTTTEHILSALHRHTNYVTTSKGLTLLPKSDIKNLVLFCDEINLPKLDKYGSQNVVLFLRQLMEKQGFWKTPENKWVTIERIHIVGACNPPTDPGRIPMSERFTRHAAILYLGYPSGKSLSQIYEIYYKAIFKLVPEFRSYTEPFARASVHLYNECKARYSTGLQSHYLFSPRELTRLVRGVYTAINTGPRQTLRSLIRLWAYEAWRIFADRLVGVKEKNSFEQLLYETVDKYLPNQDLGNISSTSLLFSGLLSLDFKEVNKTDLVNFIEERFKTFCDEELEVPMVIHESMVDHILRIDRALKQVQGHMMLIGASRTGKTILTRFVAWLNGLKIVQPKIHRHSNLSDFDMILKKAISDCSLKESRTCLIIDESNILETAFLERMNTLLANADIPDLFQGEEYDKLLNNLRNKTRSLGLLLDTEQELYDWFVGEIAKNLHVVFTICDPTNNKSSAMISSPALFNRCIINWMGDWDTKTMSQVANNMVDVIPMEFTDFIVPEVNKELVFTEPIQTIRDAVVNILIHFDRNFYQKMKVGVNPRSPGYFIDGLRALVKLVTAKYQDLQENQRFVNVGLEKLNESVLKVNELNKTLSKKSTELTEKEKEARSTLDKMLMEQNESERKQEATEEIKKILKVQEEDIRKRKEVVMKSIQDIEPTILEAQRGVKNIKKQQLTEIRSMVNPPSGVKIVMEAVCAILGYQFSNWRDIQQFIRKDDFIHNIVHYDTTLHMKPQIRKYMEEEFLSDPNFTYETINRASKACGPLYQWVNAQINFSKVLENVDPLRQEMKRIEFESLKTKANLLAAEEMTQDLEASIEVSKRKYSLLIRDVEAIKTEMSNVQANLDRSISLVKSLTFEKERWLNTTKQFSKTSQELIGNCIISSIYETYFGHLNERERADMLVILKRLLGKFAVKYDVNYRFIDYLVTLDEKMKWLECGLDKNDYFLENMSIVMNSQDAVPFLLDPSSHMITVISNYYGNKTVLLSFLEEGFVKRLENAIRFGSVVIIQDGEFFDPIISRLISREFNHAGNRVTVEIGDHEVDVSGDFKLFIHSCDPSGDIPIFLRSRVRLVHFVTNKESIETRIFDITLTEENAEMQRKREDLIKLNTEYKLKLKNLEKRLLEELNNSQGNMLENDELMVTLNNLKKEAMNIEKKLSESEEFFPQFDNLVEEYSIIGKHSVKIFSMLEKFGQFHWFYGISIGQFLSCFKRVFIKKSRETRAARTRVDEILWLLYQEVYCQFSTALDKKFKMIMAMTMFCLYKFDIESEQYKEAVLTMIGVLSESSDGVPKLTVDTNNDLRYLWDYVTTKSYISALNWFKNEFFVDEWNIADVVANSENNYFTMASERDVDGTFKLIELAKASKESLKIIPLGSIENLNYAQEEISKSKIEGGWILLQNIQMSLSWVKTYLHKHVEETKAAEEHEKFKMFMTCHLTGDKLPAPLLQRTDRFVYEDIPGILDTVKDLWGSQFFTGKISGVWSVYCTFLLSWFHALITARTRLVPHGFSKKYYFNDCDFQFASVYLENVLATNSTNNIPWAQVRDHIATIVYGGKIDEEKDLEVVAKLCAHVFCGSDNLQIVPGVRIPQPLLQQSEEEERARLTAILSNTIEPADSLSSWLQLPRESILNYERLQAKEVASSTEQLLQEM

[4] = molecular target: the molecule itself; assay: cryo-EM structure

- increase of binding density on MTs with 300 nM Lis1 against no Lis1 [1]: 62%
Molecule: Dyn^WA, GST-dimerized S. cerevisiae dynein construct with a Walker A mutation in AAA3 (domain or fragment)

- decrease of binding density on MTs with 300 nM Lis1 against no Lis1 [1]: 42%
Molecule: Dyn^WB, GST-dimerized S. cerevisiae dynein construct with a Walker B mutation in AAA3 (domain or fragment)

- stoichiometry N (Lis1 β-propellers per dynein) [2]: 2
- stoichiometry N (Lis1 β-propeller per dynein) [3]: 1
B1: Lis1 (S. cerevisiae), dimer (natural protein, UniProt P39946 1-494, looked up)
chain: MTNWQQQLPLTDTQKNELDKSVLRYLNWNYKQTVRHEHAQDYESVRHAIVTLSGFLLQESVDRQEFISNNDTSNESMVDIDELLLPKKWNSIVRLQKKIIELEQNTETLVSQIKDLNTQVSELAQFKPTTSNGTSAHNVLKWIPRNLPSCLINVESSVTSVKLHPNLPIVFVATDHGKLYAFDLFNYTIPLASLQSHTKAITSMDVLFTNYTNSSKKNYLVIVTASKDLQIHVFKWVSEECKFQQIRSLLGHEHIVSAVKIWQKNNDVHIASCSRDQTVKIWDFHNGWSLKTFQPHSQWVRSIDVLGDYIISGSHDTTLRLTHWPSGNGLSVGTGHEFPIEKVKFIHFIEDSPEIRFRTPSTDRYKNWGMQYCVSASRDRTIKIWEIPLPTLMAHRAPIPNPTDSNFRCVLTLKGHLSWVRDISIRGQYLFSCADDKSVRCWDLNTGQCLHVWEKLHTGFVNCLDLDVDFDSNVTPRQMMVTGGLDCKSNVFMR
- binding result [4]: binds
